Laboratory results from patent US20120231006A1 (Amgen, published 2012).

Experiments:
rat Orai1 = molecular target: T1, rat Orai1 (rat, UniProt Q5M848 1-304); test: FACS, 293EBNA transfectants with STIM1, thapsigargin
T1 construct: co-expressed with rat STIM1; also called rOrai1
Experimental: (§1) FIG. 13A-B illustrates the results of FACS analysis showing binding to human Orai1 expressed on the surface of HEK-293-EBNA cells that were treated with 2 μM Thapsigargin. HEK-293-EBNA cells were transiently transfected with human Orai1 and human STIM1, mouse Orai1 and mouse STIM1, rat Orai1 and rat STIM1 and control empty vector. Transfected cells were stained first with recombinant monoclonal antibodies then counter-stained with a secondary phycoerythrin-labeled Gt anti-Hu IgG F(ab′)₂ or Gt anti-Mu IgG F(ab′)₂ antibody fragment, as appropriate, and visualized using FACS.
(§2) FACS binding analysis. Transfected 293EBNA cells transiently expressed hOrai1, human Orai2, or human Orai3 (results of binding comparison in FIG. 11A-B), or hOrai1(S218G) (results of binding comparison in FIG. 12A-B); or hOrai1 and hSTIM1; mOrai1 and mouse STIM1; or rat Orai1 and rat STIM1 (results of binding comparison in FIG. 13). The transfected cells were harvested at 48 hours post-transfection. Cells transfected with pcDNA3.1 were used as negative controls. Cells were washed once with ice-cold 1×PBS, resuspended in ice-cold FACS buffer (1×D-PBS+2% goat serum), and 2×10⁵ cells in […] were stained per antibody combination. All antibody incubation steps were performed on ice for 1 hour. […] Next, the unlabelled antibody was detected using goat F(ab′)₂ anti-mouse or anti-human IgG-phycoerythrin (IgG-PE), followed by a wash with 200 μL of ice-cold FACS buffer before flow cytometry analysis. Unstained cells and cells stained with detecting antibodies were used as negative controls. The values of relative level of fluorescence were calculated using FCS Express (De Novo Software) and mean values were calculated using log-transformed data (geometric mean). Purified mAbs were assessed by FACS assay for their ability to specifically bind human Orai1, Orai2 and Orai3 proteins expressed on HEK-293 cells.

mouse Orai1 = molecular target: T2, mouse Orai1 (mouse, UniProt Q8BWG9 1-304); test: as above
T2 construct: co-expressed with mouse STIM1; also called mOrai1
T2 sequence (Q8BWG9 whole entry): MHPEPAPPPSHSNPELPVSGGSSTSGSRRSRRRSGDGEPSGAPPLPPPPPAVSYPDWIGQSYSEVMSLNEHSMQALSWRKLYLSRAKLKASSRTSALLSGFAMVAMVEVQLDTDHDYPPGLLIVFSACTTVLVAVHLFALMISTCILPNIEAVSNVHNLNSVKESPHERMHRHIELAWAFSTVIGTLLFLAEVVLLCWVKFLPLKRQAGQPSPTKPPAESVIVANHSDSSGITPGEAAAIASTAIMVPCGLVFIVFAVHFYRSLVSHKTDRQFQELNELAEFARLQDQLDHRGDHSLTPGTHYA
Experimental: as §1, §2

human Orai1 = human Orai1 (human, UniProt Q96D31 1-301); test: cell-based or functional assay
Chain of human Orai1 (Q96D31 whole entry): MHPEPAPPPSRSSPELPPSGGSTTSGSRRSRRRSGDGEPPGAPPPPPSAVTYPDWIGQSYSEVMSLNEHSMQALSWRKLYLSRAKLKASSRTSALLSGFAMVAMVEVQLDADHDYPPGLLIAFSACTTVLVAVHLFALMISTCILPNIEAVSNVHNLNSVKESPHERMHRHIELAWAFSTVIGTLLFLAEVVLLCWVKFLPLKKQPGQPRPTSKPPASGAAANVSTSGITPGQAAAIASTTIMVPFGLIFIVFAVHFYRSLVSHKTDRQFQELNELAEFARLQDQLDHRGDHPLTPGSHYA

[1] = molecular target: T3, mOrai1-hOrai1 ECL2 (VIV) protein (human/mouse chimera, UniProt Q8BWG9 1-304 (mouse entry)); test: FACS, 293EBNA, RFI-POC grade
T3 construct: also called Ch
T3 sequence (Q8BWG9 other isoform, or with tags, fused parts or gaps): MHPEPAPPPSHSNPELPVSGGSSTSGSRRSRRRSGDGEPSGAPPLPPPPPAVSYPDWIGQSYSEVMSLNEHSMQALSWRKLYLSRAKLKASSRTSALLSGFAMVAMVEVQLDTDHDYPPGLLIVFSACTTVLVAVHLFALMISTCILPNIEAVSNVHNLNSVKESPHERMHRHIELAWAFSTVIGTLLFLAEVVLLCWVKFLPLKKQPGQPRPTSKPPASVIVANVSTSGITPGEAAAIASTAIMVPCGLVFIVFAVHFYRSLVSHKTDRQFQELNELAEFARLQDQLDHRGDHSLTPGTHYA
Description: (§3) FIG. 16A-D illustrates the results of FACS analysis showing binding to the indicated mOrai1-hOrai1 ECL2 chimeric mutants expressed on the surface of HEK-293-EBNA cells. Transfected cells were stained first with recombinant monoclonal antibodies then counter-stained with a secondary phycoerythrin-labeled goat (“Gt”) anti-human (“Hu”) IgG F(ab′)₂ antibody fragment and visualized using FACS. In FIG. 16B and FIG. 16D, The values of Relative Fluorescence Intensity as Percent of Control (RFI-POC) are calculated from the relative fluorescence intensity geometric mean (Geo Mean). The geometric mean is an average calculated by multiplying a series of numbers and taking the nth root where n is the number of numbers in the series. It is a statistical average of a set of transformed numbers often used to represent a central tendency in a highly variable data set that minimizes the effects of extreme values.
(§4) Table 11A and Table 11B feature a schematic representation of the POC data from FIG. 16B and FIG. 16D, respectively, where the binding results are recorded as (+++) denoting binding POC from 40% to 100%, (++) for POC of 5% to less than 40%, (+) for POC from 1% to less than 5% and (−) as lack of binding with POC less than 1%.

[2] = molecular target: T4, mOrai1-hOrai1 ECL2 (HSD) protein (human/mouse chimera, UniProt Q8BWG9 1-304 (mouse entry)); test: FACS, 293EBNA, RFI-POC grade
T4 construct: also called Ch
T4 sequence (Q8BWG9 other isoform, or with tags, fused parts or gaps): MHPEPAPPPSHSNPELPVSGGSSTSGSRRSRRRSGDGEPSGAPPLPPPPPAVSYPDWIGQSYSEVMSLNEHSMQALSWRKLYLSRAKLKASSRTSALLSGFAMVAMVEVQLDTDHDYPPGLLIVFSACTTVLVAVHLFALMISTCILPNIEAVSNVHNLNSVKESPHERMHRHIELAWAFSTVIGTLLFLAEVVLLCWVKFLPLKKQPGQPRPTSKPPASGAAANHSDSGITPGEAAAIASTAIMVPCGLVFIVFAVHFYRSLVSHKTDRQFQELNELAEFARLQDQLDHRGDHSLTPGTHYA
Description: as §3, §4

[3] = molecular target: T5, mOrai1-hOrai1 ECL2 chimeric protein (human/mouse chimera, UniProt Q8BWG9 1-304 (mouse entry)); test: FACS, 293EBNA, RFI-POC grade
T5 construct: mouse Orai1 with human ECL2; also called Ch
T5 sequence (Q8BWG9 other isoform, or with tags, fused parts or gaps mutant): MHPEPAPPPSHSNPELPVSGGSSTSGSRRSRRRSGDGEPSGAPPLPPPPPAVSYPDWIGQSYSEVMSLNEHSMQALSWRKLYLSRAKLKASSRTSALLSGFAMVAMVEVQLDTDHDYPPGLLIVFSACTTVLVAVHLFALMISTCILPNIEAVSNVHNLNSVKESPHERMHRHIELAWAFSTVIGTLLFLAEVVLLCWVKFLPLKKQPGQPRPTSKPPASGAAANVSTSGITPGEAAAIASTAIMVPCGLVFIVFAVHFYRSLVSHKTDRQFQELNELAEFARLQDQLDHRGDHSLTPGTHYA
Description: as §3, §4

[4] = molecular target: T6, hOrai1-mOrai1 ECL2 (AANVST) protein (human/mouse chimera, UniProt Q96D31 1-301); test: FACS, 293EBNA; parameters: concentration or dose not given beside the values
T6 construct: also called Ch
T6 sequence (Q96D31 other isoform, or with tags, fused parts or gaps): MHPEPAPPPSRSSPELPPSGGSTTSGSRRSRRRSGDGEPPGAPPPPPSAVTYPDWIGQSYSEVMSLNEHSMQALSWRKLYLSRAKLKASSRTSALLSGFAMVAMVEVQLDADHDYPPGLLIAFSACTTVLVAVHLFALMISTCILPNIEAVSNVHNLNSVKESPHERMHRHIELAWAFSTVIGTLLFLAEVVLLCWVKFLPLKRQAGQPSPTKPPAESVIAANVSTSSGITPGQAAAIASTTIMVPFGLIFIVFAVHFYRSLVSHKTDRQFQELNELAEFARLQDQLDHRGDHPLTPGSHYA
Description: (§5) FIG. 17A-D illustrates the results of FACS analysis showing binding to the indicated mOrai1-hOrai1 ECL2 chimeric mutants expressed on the surface of HEK-293-EBNA cells. Transfected cells were stained first with recombinant monoclonal antibodies then counter-stained with a secondary phycoerythrin-labeled goat (“Gt”) anti-human (“Hu”) IgG F(ab′)₂ antibody fragment and visualized using FACS.
(§6) Representative results of FACS analysis of binding to the mutant hOrai1-mOrai1 ECL2 chimera described above by exemplary anti-hOrai1 antibodies of the present invention are shown in FIG. 17A-D, Table 10A and Table 10B below. Table 10A (Campaign 1) and Table 10B (Campaign 2) show the gain in binding ability of exemplary monoclonal antibodies to hOrai 1-mOrai 1 ECL2 chimera mutants as determined by FACS.

[5] = molecular target: T7, hOrai1-mOrai1 ECL2 (VST) protein (human/mouse chimera, UniProt Q96D31 1-301); test: FACS, 293EBNA; parameters: concentration or dose not given beside the values
T7 construct: also called Ch
T7 sequence (Q96D31 other isoform, or with tags, fused parts or gaps): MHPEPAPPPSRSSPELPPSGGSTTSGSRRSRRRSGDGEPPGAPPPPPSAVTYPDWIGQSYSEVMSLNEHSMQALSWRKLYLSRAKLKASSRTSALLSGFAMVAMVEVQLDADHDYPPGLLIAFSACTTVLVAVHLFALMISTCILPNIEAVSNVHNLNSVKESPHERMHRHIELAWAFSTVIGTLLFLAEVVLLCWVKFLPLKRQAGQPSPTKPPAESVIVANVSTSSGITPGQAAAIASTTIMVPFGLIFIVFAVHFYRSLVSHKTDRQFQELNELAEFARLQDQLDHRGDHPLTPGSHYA
Description: as §5, §6

[6] = molecular target: T8, hOrai1-mOrai1 ECL2 (GAA) protein (human/mouse chimera, UniProt Q96D31 1-301); test: FACS, 293EBNA; parameters: concentration or dose not given beside the values
T8 construct: also called Ch
T8 sequence (Q96D31 other isoform, or with tags, fused parts or gaps): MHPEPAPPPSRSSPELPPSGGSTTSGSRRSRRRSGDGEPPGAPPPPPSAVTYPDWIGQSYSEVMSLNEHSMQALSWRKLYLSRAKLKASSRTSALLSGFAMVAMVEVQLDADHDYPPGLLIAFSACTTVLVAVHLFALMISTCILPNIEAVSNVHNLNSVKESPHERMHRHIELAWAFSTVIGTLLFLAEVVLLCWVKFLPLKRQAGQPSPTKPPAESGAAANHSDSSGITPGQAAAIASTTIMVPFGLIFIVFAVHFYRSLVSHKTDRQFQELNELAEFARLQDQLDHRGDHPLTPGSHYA
Description: as §5, §6

[7] = molecular target: T9, hOrai1-mOrai1 ECL2 chimeric protein (human/mouse chimera, UniProt Q96D31 1-301); test: FACS, 293EBNA; parameters: concentration or dose not given beside the values
T9 construct: human Orai1 with mouse ECL2; also called Ch
T9 sequence (Q96D31 other isoform, or with tags, fused parts or gaps mutant): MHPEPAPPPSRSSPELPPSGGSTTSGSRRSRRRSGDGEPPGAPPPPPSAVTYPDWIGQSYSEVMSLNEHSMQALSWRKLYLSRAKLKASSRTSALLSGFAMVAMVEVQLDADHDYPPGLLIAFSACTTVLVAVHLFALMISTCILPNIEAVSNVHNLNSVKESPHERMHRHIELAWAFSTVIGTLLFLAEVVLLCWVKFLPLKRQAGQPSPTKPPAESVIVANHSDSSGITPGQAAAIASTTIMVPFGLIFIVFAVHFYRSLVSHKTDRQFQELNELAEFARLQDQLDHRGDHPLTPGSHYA
Description: as §5, §6

[8] = molecular target: T10, hOrai1-mOrai1 ECL2 (…) protein (human/mouse chimera, UniProt Q96D31 1-301); test: FACS, 293EBNA; parameters: concentration or dose not given beside the values
T10 construct: also called Ch
T10 sequence (Q96D31 other isoform, or with tags, fused parts or gaps): as the sequence (Q96D31 other isoform, or with tags, fused parts or gaps mutant) above, with A216P, E217A, V219G, I220A, V221A, H224V, D226T counted along it
Description: as §5, §6

[9] = molecular target: T11, hOrai1-mOrai1 ECL2 (PASGAA) protein (human/mouse chimera, UniProt Q96D31 1-301); test: FACS, 293EBNA; parameters: concentration or dose not given beside the values
T11 construct: also called Ch
T11 sequence (Q96D31 other isoform, or with tags, fused parts or gaps): as the sequence (Q96D31 other isoform, or with tags, fused parts or gaps mutant) above, with A216P, E217A, V219G, I220A, V221A counted along it
Description: as §5, §6

T1 sequence (Q5M848 whole entry): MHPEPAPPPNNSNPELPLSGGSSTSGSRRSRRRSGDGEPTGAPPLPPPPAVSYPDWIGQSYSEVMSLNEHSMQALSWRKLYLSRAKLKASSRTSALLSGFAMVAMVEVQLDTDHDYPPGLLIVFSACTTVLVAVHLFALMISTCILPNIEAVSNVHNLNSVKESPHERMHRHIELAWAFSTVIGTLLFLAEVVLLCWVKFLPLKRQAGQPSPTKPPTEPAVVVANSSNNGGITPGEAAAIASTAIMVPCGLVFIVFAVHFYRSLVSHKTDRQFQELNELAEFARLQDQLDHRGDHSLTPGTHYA

binding result (rat Orai1) | binding result (mouse Orai1) | IC50 IFN-γ, whole blood Donor A (human Orai1) [nM] | IC50 IFN-γ, whole blood Donor B (human Orai1) [nM] | IC50 IL-2, whole blood Donor A (human Orai1) [nM] | IC50 IL-2, whole blood Donor B (human Orai1) [nM] | POC (percent of control, FACS Geo Mean relative to Ch. 1) [1] [%] | POC (percent of control, FACS Geo Mean relative to Ch. 1) [2] [%] | POC (percent of control, FACS Geo Mean relative to Ch. 1) [3] [%] | percent of control (POC) of FACS Geo Mean [4] [%] | percent of control (POC) of FACS Geo Mean [5] [%] | percent of control (POC) of FACS Geo Mean [6] [%] | percent of control (POC) of FACS Geo Mean [7] [%] | percent of control (POC) of FACS Geo Mean [8] [%] | percent of control (POC) of FACS Geo Mean [9] [%] | Binder
no binding (tested: 1 µg) | no binding (tested: 1 µg) | 1.98 | 2.06 | 1.31 | 1.16 | 40 to 100 | 40 to 100 | 40 to 100 | < 1 | < 1 | < 1 | < 1 | < 1 | < 1 | mAb 2D2.1 (antibody, human IgG2, lambda, V domains shown, fully human IgG2 lambda, Campaign 1; also called mAb 2D.1) VH: QVQLQQWGAGLLKPSETLSLTCAVYGGSFSGYYWSWIRQPPGKGLEWIGEIDHSGRINYNPALKSRLTISVDTSKNQFSLKLSSVTAADTAVYYCARAGSGGYEDWFDPWGQGTLVTVSS VL: QSVLTQPPSVSGAPGQRVTISCTGSSSNIGAGYNVHWYQQFPRTDPKLLIYVYNIRPSGVPDRFSGSRSGTSASLAITGLQTEDEADYYCQSYDSSLSGVVFGGGTKLTVLG
no binding (tested: 1 µg) | no binding (tested: 1 µg) | 4.6 | 14 | 3.5 | 4.67 | 40 to 100 | 40 to 100 | 40 to 100 | – | – | – | – | – | – | mAb 2B7.1 (antibody, human IgG2, V domains shown, fully human, Campaign 1) VH: QVQLQQWGAGLLKPSETLSLTCAVYGGSFSGYYWSWIRQPPGKGLEWIGEIDHSGSTNYNPALKSRLTISVDTSKNQFSLKLSSVTAADTAVYYCARAGSGGYEDWFDPWGQGTLVTVSS VL: QSVLTQPPSVSGAPGQRVTISCTGSSSNIGTGYNVHWYQQFPRTDPKLLIYVYNIRPSGVPDRFSGSRSGTSASLAITGLQTEDEADYYCQSYDSSLSGVVFGGGTKLTVLG
no binding (tested: 1 µg) | no binding (tested: 1 µg) | 17.1 | 2.67 | 5.23 | 1.44 | 40 to 100 | 40 to 100 | 40 to 100 | – | – | – | – | – | – | mAb 2C1.1 (antibody, human IgG2, lambda, V domains shown, fully human IgG2 lambda, Campaign 1; tested hybridoma-purified and recombinant; also called anti-hOrai1 mAb 2C1.1) VH: QVQLQQWGAGLLKPSETLSLTCAVYGGSFSGYYWSWIRQPPGKGLEWIGEIDHSGSTNYNPALKSRLTISVDTSKNQFSLKLSSVTAADTAVYYCARAGSGGYEDWFDPWGQGTLVTVSS VL: QSVLTQPPSVSGAPGQRVTISCTGSSSNIGAGYNVHWYQQFPRTDPKLLIYVYNIRPSGVPDRFSGSRSGTSASLAITGLQTEDEADYYCQSYDSSLSGVVFGGGTKLTVLG
